The chains are these.
B1: TPR t1 (parent)
chain: GACCAAUCUGCCCUCAGAGCUCGAGAACAUCUUCGGAUGCAGAGGAGGCAGGCUUCGGUGGCGCGAUAGCGCCAACGUCCUCAACCUCCAAUGCAUCCCACCACAUGAUGAUGCCUGAAGAGCCUUGGUUUUUUG

In the data set the parent is B1. Kind of data set: polymerase ribozyme fitness, log enrichment relative to wild type (log ratio); higher = more active; in vitro selection for triplet polymerase activity. In short, it runs like this:
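The heterodimeric triplet polymerase ribozyme's subunits were each mutagenized into PCR-built libraries and transcribed. Every library was selected once, in triplicate, by annealing with a biotinylated primer, the partner subunit and triplets, incubating frozen at −7 °C, gel-excising extended constructs, capturing on streptavidin beads and running RT-PCR. Input and output libraries were Illumina-sequenced, with genotypes kept only at ≥10 input reads and ≥1 read per output. Fitness, from inverse-variance-weighted replicate averages, is the base-2 logarithm of genotype enrichment over wild-type enrichment.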
Take A46G U78A U112G: the “polymerase ribozyme fitness (log ratio)” value turned out to be 0.172.
For G45A U81G, the “polymerase ribozyme fitness (log ratio)” value is -3.71.
To G47C U125A belongs -2.59; to G45C C114A, -2.66; to G45U U106A U129C, -1.68.
To A46U C53U G69C U87C belongs -2.13; to G45U G63A U78G G120C, -1.71.
To G47U C53U C79A belongs -4.4; to A46G A50G U87C, -0.00584; to A46U U109A, -6.04.
For the variant G47A C124U, the “polymerase ribozyme fitness (log ratio)” value worked out at 0.0616.
In the case of G45A G69U C99U A111G, the “polymerase ribozyme fitness (log ratio)” value was -0.775.
With G47A U133A, the “polymerase ribozyme fitness (log ratio)” value was -1.33.
A46U G71C U78A C86A: the “polymerase ribozyme fitness (log ratio)” value is -1.63.
The result for G45A C62A U112G C115G reads -3.1; that for A46U C70G C85U C104G, -7.09; that for A46G G69U, 0.473.
Take G45U G63A: the “polymerase ribozyme fitness (log ratio)” value was -2.32.
As to G45A C79G G107A, the “polymerase ribozyme fitness (log ratio)” value was -7.38.
With G47A U96G G110A, the “polymerase ribozyme fitness (log ratio)” value is -3.19.
Turning to G47A G51A G71U C98U A105U U112G, the “polymerase ribozyme fitness (log ratio)” value is -7.71.
To A46G C72G C85G belongs -4.41.
To G45U A50U C114A G135A belongs -5.32; to G45U C53A C72U C89G, -1.72.
For G47A G52A G120A, the “polymerase ribozyme fitness (log ratio)” value is -0.716.
A46U C94G C98U: the “polymerase ribozyme fitness (log ratio)” value is -4.76.
To G47U A95C G128C belongs -4.33; to G47A C53U A118U, -0.687; to G45C C115A U130C, -2.49.
Take A46U C89U A111U: the “polymerase ribozyme fitness (log ratio)” value is -5.27.
Turning to A46G G47U G120U U132A, the “polymerase ribozyme fitness (log ratio)” value is -1.09.
With G45A C80A C115A, the “polymerase ribozyme fitness (log ratio)” value was -3.93.
Consider G45C C49U C97U A100U A121C U133C, for which the “polymerase ribozyme fitness (log ratio)” value was -0.146.
For A46C C86U A95G C114G, the “polymerase ribozyme fitness (log ratio)” value was -3.71.
To G45U G47U G60A C98G belongs -7.59; to G45A C62A, -1.81; to G45A C62U, -0.924.
Consider A46U G71U, for which the “polymerase ribozyme fitness (log ratio)” value is -1.16.
To A46U U55A G69A U125A belongs -4.29; to G45U G63U G113A, -3.01; to G47C U55G G63A C104U, -3.2.
Consider A46G G61A A100C U132C, for which the “polymerase ribozyme fitness (log ratio)” value was -0.683.
Consider G45C U126A, for which the “polymerase ribozyme fitness (log ratio)” value is -2.8.
As for G45U C73U C79A, the “polymerase ribozyme fitness (log ratio)” value is -2.93.
The result for G45C A46C A105C reads -5.01; that for A46U G63C, -1.29; that for A46U C49U, -1.49.
On to G47A C101U G122A, for which the “polymerase ribozyme fitness (log ratio)” value is -1.99.
With G45U G135U, the “polymerase ribozyme fitness (log ratio)” value was -2.03.
To G45U A50G belongs -1.25; to G45U C104U C124A, -1.14; to A46U C62G C88A C124A U133G, -4.11.
Turning to A46C C115G G117A, the “polymerase ribozyme fitness (log ratio)” value is -4.09.
To A46G G57A C73U A83G U112C belongs -0.119; to G45U A50U A84U G117C, -7.49.
On to G45U U59G U112A, for which the “polymerase ribozyme fitness (log ratio)” value is -0.539.
Turning to G47U C56U A95U, the “polymerase ribozyme fitness (log ratio)” value was -1.34.
Take A46U C99U: the “polymerase ribozyme fitness (log ratio)” value is -4.49.
As to G47U C80G U87A C101U C123A G127A, the “polymerase ribozyme fitness (log ratio)” value is -5.76.
As for A46C C56G C70A, the “polymerase ribozyme fitness (log ratio)” value was -5.02.
To G45A G61A A74U belongs -1.29; to G45U G48A G69U, -0.269.
On to G47C G117A, for which the “polymerase ribozyme fitness (log ratio)” value was -2.73.
Turning to A46U C62G C88A C124A, the “polymerase ribozyme fitness (log ratio)” value is -4.36.
Consider G45U C86U U87A C124U U130C, for which the “polymerase ribozyme fitness (log ratio)” value was -1.19.
G47A C79U: the “polymerase ribozyme fitness (log ratio)” value is -1.59.
The result for A46G A74C U133A reads -0.745; that for G45A C56A, -0.425.
As for G47C C86U A105U A121C, the “polymerase ribozyme fitness (log ratio)” value is -1.01.
To G47A C64U G117U belongs -4.27.
As to G45U C73U U87A A105U G135C, the “polymerase ribozyme fitness (log ratio)” value was -2.69.
The result for A46U G57C A84U C114U reads -3.16; that for A46U C102U, -4.01; that for G45U U78G C88U, -1.1.
The result for G47A C49A U132A reads -1.53; that for A46C G48A, -1.9.
To A46G A105C belongs -1.62; to G45A C70G G110C, -6.17; to G47U C114A, -2.77.
For the variant G47U C114U, the “polymerase ribozyme fitness (log ratio)” value was -3.33.
The result for G47A C73A U126A reads -2.35.
With G45A C73U C88A U112C G122U, the “polymerase ribozyme fitness (log ratio)” value is 0.105.
Turning to G45A G107A A121C, the “polymerase ribozyme fitness (log ratio)” value was -6.43.
The result for A46G C73U U87A A91C G113A reads -2.54.
To A46G G113U belongs -2.95; to G47U C49G C70U U87C A100C, -3.16; to G47C C64A C104U, -7.34.
To A46U C56U C114A belongs -2.28; to G47A A50U C56A G69U G77C, -1.54.
With G47A C72A C86A U96G G117U, the “polymerase ribozyme fitness (log ratio)” value is -4.69.
Regarding G45A C114U, the “polymerase ribozyme fitness (log ratio)” value is -2.37.
G45C C86G C102U G120U: the “polymerase ribozyme fitness (log ratio)” value is -7.48.
The result for G45U C72A C88A G93A G107U A111C reads -5.12; that for G47A C49A C124U, 0.655; that for G47U C73G C82U, -2.22.
Consider G47C U112G C115U U130A, for which the “polymerase ribozyme fitness (log ratio)” value was -5.2.
The result for G47C G58A reads -1.77.
The result for G47A C73U G117U G135U reads -5.34; that for G47U C72U U78C G113C, -3.65; that for G45U G60U, -0.287.
For G45U G93U A100C C104A, the “polymerase ribozyme fitness (log ratio)” value is -6.03.
As to A46U U78C G113A, the “polymerase ribozyme fitness (log ratio)” value was -2.45.
For the variant G45U G110U, the “polymerase ribozyme fitness (log ratio)” value was -2.75.
Regarding G45C G69A G117U, the “polymerase ribozyme fitness (log ratio)” value was -6.59.
The result for G45U G51A G52U reads -4.66.
With A46U G48U C76A U78C C82U, the “polymerase ribozyme fitness (log ratio)” value was -5.9.
To A46C C56G C72G U87A A100U belongs -1.12; to G47U A50U U59C C73A U78A U133A, -2.31; to G47A G120A U126A, -1.73.
In the case of G45A C123G, the “polymerase ribozyme fitness (log ratio)” value turned out to be 0.984.
To A46U A111C C124G U131A U132C belongs -0.582; to A46G A90G C101U U106A, -0.372.
The result for A46U G117A U133G reads -2.73; that for G45C C49A C76U C102A, -3.88; that for G47U C72U C94A, -2.85.
To G47U C101U U125G U126C belongs -2.99; to G45A C56G U78A G122A U129G, -1.63; to A46U A66G G77A, -1.99.
As for G47A C123U, the “polymerase ribozyme fitness (log ratio)” value is -0.261.
To G47A C123A belongs -0.394.
In the case of A46C G47A A50G C97A A121G C124G, the “polymerase ribozyme fitness (log ratio)” value was -5.64.
To G45A G71U C115G belongs -2.11.
To G45U C64U G77U C79U C114G belongs -4.61.
Turning to G45C A84G C97A, the “polymerase ribozyme fitness (log ratio)” value was -6.72.
To G45A U59G G60A A100U belongs -2.28.
On to G45U G71A, for which the “polymerase ribozyme fitness (log ratio)” value is -2.09.
To A46G C53A G135U belongs -1.55; to G47C C72G, -2.9.
The result for G47C G113U reads -4.11.
The result for G47C G113C reads -3.85; that for A46U G52U G71U C123A, -2.41.
In the case of A46C G48U G113A, the “polymerase ribozyme fitness (log ratio)” value is -3.
The result for G45U C53A G61C reads -5.95.
A46U U131C: the “polymerase ribozyme fitness (log ratio)” value is -1.72.
To G45U U112A belongs 0.359; to G47A C104A, -2.7.
Turning to A46U C76G, the “polymerase ribozyme fitness (log ratio)” value was -1.01.
With A46C C70U C101U, the “polymerase ribozyme fitness (log ratio)” value was -1.31.
Regarding G47C C70U C89U, the “polymerase ribozyme fitness (log ratio)” value was -4.18.
The result for G45U C56A G128C reads -5.66.
G45C C70U A83C: the “polymerase ribozyme fitness (log ratio)” value was -1.86.
To A46U C115U belongs -2.18.
As for G45U C56A C73G, the “polymerase ribozyme fitness (log ratio)” value is -2.79.
For the variant G45A C85G, the “polymerase ribozyme fitness (log ratio)” value was -3.89.
The result for G45U G52A C62U U96G reads -2.4; that for A46G G60U, -0.448.
The result for A46U G77C reads -1.54; that for G45A C88A, -0.795.
The result for G45U G61A reads -2.11; that for G45U G61C, -2.72; that for G45A C115A, -1.15.
On to A46G A50G, for which the “polymerase ribozyme fitness (log ratio)” value was found to be 0.425.
The result for A46U A91G C123G reads -1.65; that for G47C A50U C72U U81C C114U, -5.1.
The result for A46G U55G reads 0.201; that for G45A G120C, 0.183; that for G45C G48U G52U C76U, -4.18.
The result for G47A A50G C115A reads -1.8; that for A46U G47A G127C, -3.12; that for G45A G61U C70U G110U U125C, -3.2.
For G47A U78C C88A C97A U106A, the “polymerase ribozyme fitness (log ratio)” value is -5.69.
A46U C114U: the “polymerase ribozyme fitness (log ratio)” value is -2.76.
A46C C49U A121U: the “polymerase ribozyme fitness (log ratio)” value came out at 0.936.
The result for A46G G47C U96A reads -3.35; that for A46U G69U C115A, -0.295; that for G47A C114A, -2.59.
To G45U A46C G127C belongs -2.82.

(Values after the RNAGym collection of RNA variant scans (doi:10.1073/pnas.2313332121).)
